Test results taken from PMC11414720.

Target: TMED2 (overexpressed) (UniProt Q15363)
Assay: SEC; gel filtration of overexpressed protein in octyl-β-glucoside, a harsher detergent

Sequence of TMED2 (overexpressed), Q15363 21-201 (receptor; other documents disagree on this pair) (Q15363 21-201): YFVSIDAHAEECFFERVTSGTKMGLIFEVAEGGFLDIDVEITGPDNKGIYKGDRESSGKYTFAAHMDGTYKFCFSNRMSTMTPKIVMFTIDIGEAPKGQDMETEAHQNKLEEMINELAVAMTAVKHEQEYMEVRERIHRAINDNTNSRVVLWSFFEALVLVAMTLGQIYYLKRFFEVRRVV

stoichiometry N: 2
Substance: TMED2 (overexpressed), Q15363 21-201 (receptor; other documents disagree on this pair)
